{
  "source": "paper PMC12529666",
  "about": "“Dysregulation of AGO2-miRNA dynamics underlies the AGO2-associated Lessel–Kreienkamp syndrome”",
  "binders": {"B1": {"name": "miR-122 guide / biotinylated capture oligo (DNA:RNA)", "RNA": "UGGAGUGUGACAAUGGUGUUUG", "DNA": "TCTCGTCTAACCATGCCAACACTCCAACTCT", "modifications": "5' phosphate on guide"}, "B2": {"name": "miR-122 guide / seed-matched target RNA (dsRNA)", "RNA 1": "UGGAGUGUGACAAUGGUGUUUG", "RNA 2": "AAAAAAAAAAAAACACUCCUAA", "modifications": "5' phosphate on guide"}},
  "key": {"AGO2 F182del [1]": {"target": "T1, AGO2 F182del (Homo sapiens, UniProt Q9UKV8 1-859, S387D;S824A;S828D;S831D;S834A;del182-182)", "T1 sequence (Q9UKV8 other isoform, or with tags, fused parts or gaps S387D;S824A;S828D;S831D;S834A;del182-182)": "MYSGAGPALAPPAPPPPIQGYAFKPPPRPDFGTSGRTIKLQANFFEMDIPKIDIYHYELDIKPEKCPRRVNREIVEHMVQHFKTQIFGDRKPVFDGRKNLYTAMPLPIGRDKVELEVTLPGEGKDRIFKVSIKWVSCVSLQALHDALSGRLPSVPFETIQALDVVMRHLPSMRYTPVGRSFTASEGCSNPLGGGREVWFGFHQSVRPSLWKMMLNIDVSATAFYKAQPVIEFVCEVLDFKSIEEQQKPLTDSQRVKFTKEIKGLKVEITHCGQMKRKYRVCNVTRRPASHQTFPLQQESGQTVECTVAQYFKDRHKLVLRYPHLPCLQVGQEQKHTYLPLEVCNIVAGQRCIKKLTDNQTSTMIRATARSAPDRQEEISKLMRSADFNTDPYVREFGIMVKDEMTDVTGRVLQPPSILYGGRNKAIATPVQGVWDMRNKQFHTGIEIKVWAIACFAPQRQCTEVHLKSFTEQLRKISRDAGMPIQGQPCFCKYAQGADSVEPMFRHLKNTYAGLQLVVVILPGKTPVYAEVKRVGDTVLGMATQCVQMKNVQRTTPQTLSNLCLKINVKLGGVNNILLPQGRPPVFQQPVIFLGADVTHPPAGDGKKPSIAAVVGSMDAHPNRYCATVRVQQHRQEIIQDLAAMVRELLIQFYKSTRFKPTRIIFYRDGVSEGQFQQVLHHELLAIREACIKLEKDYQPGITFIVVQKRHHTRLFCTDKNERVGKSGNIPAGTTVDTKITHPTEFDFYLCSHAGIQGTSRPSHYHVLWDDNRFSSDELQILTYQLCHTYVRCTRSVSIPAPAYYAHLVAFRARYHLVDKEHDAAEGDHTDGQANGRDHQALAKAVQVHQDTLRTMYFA", "test": "pull-down; recovery similar to WT; 30 mM Tris pH 8.0, 100 mM KOAc, 2 mM MgOAc, 0.5 mM TCEP, 0.005% NP-40, 0.01 mg/ml yeast tRNA, room temperature, 2 h (equilibrium); association buffer listed without Mg", "details": "protein: recombinant; tags: His6 (N-terminal, pFastBac HTA); label: biotin on capture oligo; guide paired in part with capture oligo"}, "AGO2 A367P [2]": {"target": "T2, AGO2 A367P (Homo sapiens, UniProt Q9UKV8 1-859, A367P;S387D;S824A;S828D;S831D;S834A)", "T2 sequence (Q9UKV8 whole entry A367P/S387D/S824A/S828D/S831D/S834A)": "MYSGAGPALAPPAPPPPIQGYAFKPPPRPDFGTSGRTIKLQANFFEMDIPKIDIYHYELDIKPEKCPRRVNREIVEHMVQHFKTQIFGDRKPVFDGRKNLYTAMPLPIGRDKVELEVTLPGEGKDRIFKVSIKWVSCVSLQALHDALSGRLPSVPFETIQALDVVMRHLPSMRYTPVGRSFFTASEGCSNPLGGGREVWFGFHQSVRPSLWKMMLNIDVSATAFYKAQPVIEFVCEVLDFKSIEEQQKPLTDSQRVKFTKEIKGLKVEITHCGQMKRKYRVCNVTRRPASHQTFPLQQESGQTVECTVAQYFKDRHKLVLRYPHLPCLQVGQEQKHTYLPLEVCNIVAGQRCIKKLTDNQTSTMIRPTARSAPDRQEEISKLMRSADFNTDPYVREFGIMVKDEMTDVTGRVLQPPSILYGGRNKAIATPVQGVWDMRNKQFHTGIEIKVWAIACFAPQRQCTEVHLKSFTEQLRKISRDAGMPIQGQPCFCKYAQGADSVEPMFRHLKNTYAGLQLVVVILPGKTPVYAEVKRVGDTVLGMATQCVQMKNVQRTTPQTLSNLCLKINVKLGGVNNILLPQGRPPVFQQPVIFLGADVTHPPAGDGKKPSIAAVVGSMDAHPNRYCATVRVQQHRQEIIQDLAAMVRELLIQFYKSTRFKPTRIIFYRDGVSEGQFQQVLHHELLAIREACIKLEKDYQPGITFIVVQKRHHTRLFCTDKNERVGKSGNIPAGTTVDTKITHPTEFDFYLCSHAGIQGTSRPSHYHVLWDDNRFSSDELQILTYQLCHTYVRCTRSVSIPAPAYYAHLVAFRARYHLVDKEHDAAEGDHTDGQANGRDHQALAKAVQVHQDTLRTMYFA", "test": "pull-down; recovery similar to WT; 30 mM Tris pH 8.0, 100 mM KOAc, 2 mM MgOAc, 0.5 mM TCEP, 0.005% NP-40, 0.01 mg/ml yeast tRNA, room temperature, 2 h (equilibrium); association buffer listed without Mg", "details": "protein: recombinant; tags: His6 (N-terminal, pFastBac HTA); label: biotin on capture oligo; guide paired in part with capture oligo"}, "AGO2 T357M [3]": {"target": "T3, AGO2 T357M (Homo sapiens, UniProt Q9UKV8 1-859, T357M;S387D;S824A;S828D;S831D;S834A)", "T3 sequence (Q9UKV8 whole entry T357M/S387D/S824A/S828D/S831D/S834A)": "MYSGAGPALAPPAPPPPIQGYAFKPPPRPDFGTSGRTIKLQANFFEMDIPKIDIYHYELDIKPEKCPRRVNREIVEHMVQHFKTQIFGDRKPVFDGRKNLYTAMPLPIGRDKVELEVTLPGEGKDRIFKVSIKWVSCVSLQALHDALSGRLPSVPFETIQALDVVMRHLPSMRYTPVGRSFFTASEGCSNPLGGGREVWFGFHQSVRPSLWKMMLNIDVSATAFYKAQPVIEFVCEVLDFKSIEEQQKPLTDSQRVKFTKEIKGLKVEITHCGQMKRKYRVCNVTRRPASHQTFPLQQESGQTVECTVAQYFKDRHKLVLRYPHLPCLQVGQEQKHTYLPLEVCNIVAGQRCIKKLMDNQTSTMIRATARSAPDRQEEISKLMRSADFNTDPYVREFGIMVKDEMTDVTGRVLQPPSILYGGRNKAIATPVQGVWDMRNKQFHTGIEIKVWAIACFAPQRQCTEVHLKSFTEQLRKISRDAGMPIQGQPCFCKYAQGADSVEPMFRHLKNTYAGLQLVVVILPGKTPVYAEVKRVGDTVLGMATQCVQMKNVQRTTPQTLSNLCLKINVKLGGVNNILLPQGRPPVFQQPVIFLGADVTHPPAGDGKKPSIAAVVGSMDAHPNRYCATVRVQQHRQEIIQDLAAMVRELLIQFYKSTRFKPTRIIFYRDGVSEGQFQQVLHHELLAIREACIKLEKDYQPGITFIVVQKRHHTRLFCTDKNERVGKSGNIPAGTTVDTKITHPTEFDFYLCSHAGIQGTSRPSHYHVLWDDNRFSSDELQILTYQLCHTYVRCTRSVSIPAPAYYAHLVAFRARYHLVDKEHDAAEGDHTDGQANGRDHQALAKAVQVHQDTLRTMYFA", "test": "pull-down; recovery similar to WT; 30 mM Tris pH 8.0, 100 mM KOAc, 2 mM MgOAc, 0.5 mM TCEP, 0.005% NP-40, 0.01 mg/ml yeast tRNA, room temperature, 2 h (equilibrium); association buffer listed without Mg", "details": "protein: recombinant; tags: His6 (N-terminal, pFastBac HTA); label: biotin on capture oligo; guide paired in part with capture oligo"}, "AGO2 L192P [4]": {"target": "T4, AGO2 L192P (Homo sapiens, UniProt Q9UKV8 1-859, L192P;S387D;S824A;S828D;S831D;S834A)", "T4 sequence (Q9UKV8 whole entry L192P/S387D/S824A/S828D/S831D/S834A)": "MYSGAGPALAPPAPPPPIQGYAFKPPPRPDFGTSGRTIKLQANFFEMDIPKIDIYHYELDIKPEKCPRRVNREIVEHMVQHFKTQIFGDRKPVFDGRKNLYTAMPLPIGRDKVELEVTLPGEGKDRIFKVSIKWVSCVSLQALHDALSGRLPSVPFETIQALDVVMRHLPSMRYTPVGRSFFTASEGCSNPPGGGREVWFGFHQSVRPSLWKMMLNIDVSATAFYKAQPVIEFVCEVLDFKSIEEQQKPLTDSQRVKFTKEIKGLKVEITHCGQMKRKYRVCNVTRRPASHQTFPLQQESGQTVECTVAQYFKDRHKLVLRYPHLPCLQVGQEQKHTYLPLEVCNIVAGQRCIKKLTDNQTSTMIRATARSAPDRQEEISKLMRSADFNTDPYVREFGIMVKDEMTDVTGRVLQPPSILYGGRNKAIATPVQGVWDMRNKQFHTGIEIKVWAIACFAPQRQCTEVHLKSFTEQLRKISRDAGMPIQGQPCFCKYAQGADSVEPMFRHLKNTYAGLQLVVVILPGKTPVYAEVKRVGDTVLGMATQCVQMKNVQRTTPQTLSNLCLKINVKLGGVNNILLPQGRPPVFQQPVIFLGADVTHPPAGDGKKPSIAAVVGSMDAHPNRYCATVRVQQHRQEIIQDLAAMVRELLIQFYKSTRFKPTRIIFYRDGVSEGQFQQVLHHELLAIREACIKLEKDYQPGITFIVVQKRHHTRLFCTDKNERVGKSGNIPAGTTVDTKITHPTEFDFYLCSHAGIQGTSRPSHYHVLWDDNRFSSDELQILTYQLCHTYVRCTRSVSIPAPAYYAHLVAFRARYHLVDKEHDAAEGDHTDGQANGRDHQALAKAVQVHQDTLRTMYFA", "test": "pull-down; recovery similar to WT; 30 mM Tris pH 8.0, 100 mM KOAc, 2 mM MgOAc, 0.5 mM TCEP, 0.005% NP-40, 0.01 mg/ml yeast tRNA, room temperature, 2 h (equilibrium); association buffer listed without Mg", "details": "protein: recombinant; tags: His6 (N-terminal, pFastBac HTA); label: biotin on capture oligo; guide paired in part with capture oligo"}, "AGO2 F182del [5]": {"target": "T1, AGO2 F182del", "test": "northern blot of purified complex; ~1:1 AGO2:miR-122; 30 mM Tris pH 8.0, 100 mM KOAc, 2 mM MgOAc, 0.5 mM TCEP, 0.005% NP-40, 0.01 mg/ml yeast tRNA, room temperature, 2 h (equilibrium); association buffer listed without Mg", "details": "protein: recombinant; tags: His6 (N-terminal, pFastBac HTA)"}, "AGO2 A367P [6]": {"target": "T2, AGO2 A367P", "test": "northern blot of purified complex; ~1:1 AGO2:miR-122; 30 mM Tris pH 8.0, 100 mM KOAc, 2 mM MgOAc, 0.5 mM TCEP, 0.005% NP-40, 0.01 mg/ml yeast tRNA, room temperature, 2 h (equilibrium); association buffer listed without Mg", "details": "protein: recombinant; tags: His6 (N-terminal, pFastBac HTA)"}, "AGO2 T357M [7]": {"target": "T3, AGO2 T357M", "test": "northern blot of purified complex; ~1:1 AGO2:miR-122; 30 mM Tris pH 8.0, 100 mM KOAc, 2 mM MgOAc, 0.5 mM TCEP, 0.005% NP-40, 0.01 mg/ml yeast tRNA, room temperature, 2 h (equilibrium); association buffer listed without Mg", "details": "protein: recombinant; tags: His6 (N-terminal, pFastBac HTA)"}, "AGO2 L192P [8]": {"target": "T4, AGO2 L192P", "test": "northern blot of purified complex; ~1:1 AGO2:miR-122; 30 mM Tris pH 8.0, 100 mM KOAc, 2 mM MgOAc, 0.5 mM TCEP, 0.005% NP-40, 0.01 mg/ml yeast tRNA, room temperature, 2 h (equilibrium); association buffer listed without Mg", "details": "protein: recombinant; tags: His6 (N-terminal, pFastBac HTA)"}, "AGO2 A367P [9]": {"target": "T2, AGO2 A367P", "test": "filter binding (association); AGO2-miR-122 0.25-1.5 nM; 30 mM Tris pH 8.0, 100 mM KOAc, 2 mM MgOAc, 0.5 mM TCEP, 0.005% NP-40, 0.01 mg/ml yeast tRNA, room temperature, 2 h (equilibrium); association buffer listed without Mg", "details": "protein: recombinant; tags: His6 (N-terminal, pFastBac HTA); label: 32P 5' on target; guide g2-g8 paired with target ACACUCC; remainder unpaired"}, "AGO2 L192P [10]": {"target": "T4, AGO2 L192P", "test": "filter binding (association); AGO2-miR-122 0.25-1.5 nM; 30 mM Tris pH 8.0, 100 mM KOAc, 2 mM MgOAc, 0.5 mM TCEP, 0.005% NP-40, 0.01 mg/ml yeast tRNA, room temperature, 2 h (equilibrium); association buffer listed without Mg", "details": "protein: recombinant; tags: His6 (N-terminal, pFastBac HTA); label: 32P 5' on target; guide g2-g8 paired with target ACACUCC; remainder unpaired"}, "AGO2 L192P [11]": {"target": "T4, AGO2 L192P", "test": "filter binding (dissociation); 300 nM unlabeled target chase; slowest release; 30 mM Tris pH 8.0, 100 mM KOAc, 2 mM MgOAc, 0.5 mM TCEP, 0.005% NP-40, 0.01 mg/ml yeast tRNA, room temperature, 2 h (equilibrium); association buffer listed without Mg", "details": "protein: recombinant; tags: His6 (N-terminal, pFastBac HTA); label: 32P 5' on target; guide g2-g8 paired with target ACACUCC; remainder unpaired"}, "AGO2 A367P [12]": {"target": "T2, AGO2 A367P", "test": "filter binding (dissociation); 300 nM unlabeled target chase; 30 mM Tris pH 8.0, 100 mM KOAc, 2 mM MgOAc, 0.5 mM TCEP, 0.005% NP-40, 0.01 mg/ml yeast tRNA, room temperature, 2 h (equilibrium); association buffer listed without Mg", "details": "protein: recombinant; tags: His6 (N-terminal, pFastBac HTA); label: 32P 5' on target; guide g2-g8 paired with target ACACUCC; remainder unpaired"}, "AGO2 T357M [13]": {"target": "T3, AGO2 T357M", "test": "filter binding (dissociation); 300 nM unlabeled target chase; 30 mM Tris pH 8.0, 100 mM KOAc, 2 mM MgOAc, 0.5 mM TCEP, 0.005% NP-40, 0.01 mg/ml yeast tRNA, room temperature, 2 h (equilibrium); association buffer listed without Mg", "details": "protein: recombinant; tags: His6 (N-terminal, pFastBac HTA); label: 32P 5' on target; guide g2-g8 paired with target ACACUCC; remainder unpaired"}, "AGO2 T357M [14]": {"target": "T3, AGO2 T357M", "test": "filter binding; 2 mM Mg2+; 30 mM Tris pH 8.0, 100 mM KOAc, 2 mM MgOAc, 0.5 mM TCEP, 0.005% NP-40, 0.01 mg/ml yeast tRNA, room temperature, 2 h (equilibrium); association buffer listed without Mg", "details": "protein: recombinant; tags: His6 (N-terminal, pFastBac HTA); label: 32P 5' on target; guide g2-g8 paired with target ACACUCC; remainder unpaired"}},
  "data": [
    {"binder": "B1", "values": [
      {"measurement": "binding result", "setting": "AGO2 F182del [1]", "value": "binds"},
      {"measurement": "binding result", "setting": "AGO2 A367P [2]", "value": "binds"},
      {"measurement": "binding result", "setting": "AGO2 T357M [3]", "value": "binds"},
      {"measurement": "binding result", "setting": "AGO2 L192P [4]", "value": "binds"}
    ]},
    {"binder": "UGGAGUGUGACAAUGGUGUUUG (ssRNA, 5' phosphate)", "note": "[miR-122 guide RNA]", "values": [
      {"measurement": "binding result", "setting": "AGO2 F182del [5]", "value": "binds"},
      {"measurement": "binding result", "setting": "AGO2 A367P [6]", "value": "binds"},
      {"measurement": "binding result", "setting": "AGO2 T357M [7]", "value": "binds"},
      {"measurement": "binding result", "setting": "AGO2 L192P [8]", "value": "binds"}
    ]},
    {"binder": "B2", "values": [
      {"measurement": "binding signal", "setting": "AGO2 A367P [9]", "value": "> 5 fold slower association than WT (at least)"},
      {"measurement": "binding signal", "setting": "AGO2 L192P [10]", "value": "> 5 fold slower association than WT (at least)"},
      {"measurement": "binding signal", "setting": "AGO2 L192P [11]", "value": "~20 fold slower koff (slow phase) vs near-WT fast phase"},
      {"measurement": "binding signal", "setting": "AGO2 A367P [12]", "value": "~20 fold slower koff (slow phase) vs near-WT fast phase"},
      {"measurement": "binding signal", "setting": "AGO2 T357M [13]", "value": "~20 fold slower koff (slow phase) vs near-WT fast phase"},
      {"measurement": "binding signal", "setting": "AGO2 T357M [14]", "value": "1.8 fold lower KD than WT (not significant)"}
    ]}
  ]
}
